# B1: Fenna–Matthews–Olson antenna protein (FMO) (natural protein, UniProt Q46393 1-366, looked up)
# chain: MALFGSNDVTTAHSDYEIVLEGGSSSWGKVKARAKVNAPPASPLLPADCDVKLNVKPLDPAKGFVRISAVFESIVDSTKNKLTIEADIANETKERRISVGEGMVSVGDFSHTFSFEGSVVNLFYYRSDAVRRNVPNPIYMQGRQFHDILMKVPLDNNDLIDTWEGTVKAIGSTGAFNDWIRDFWFIGPAFTALNEGGQRISRIEVNGLNTESGPKGPVGVSRWRFSHGGSGMVDSISRWAELFPSDKLNRPAQVEAGFRSDSQGIEVKVDGEFPGVSVDAGGGLRRILNHPLIPLVHHGMVGKFNNFNVDAQLKVVLPKGYKIRYAAPQYRSQNLEEYRWSGGAYARWVEHVCKGGVGQFEILYAQ
# Molecular target: the molecule itself
# Assay: native gel or EMSA
protein,measurement,value
B1,stoichiometry N,3

# Source: article PMC4372062 (Biochemistry, 2014)
